Tests used:
[1] = molecular target: T1, thermolysin-cleaved EBOV GP on Jurkat-GP cells (cleaved GP) (Zaire ebolavirus, Makona (GP1 core …, strain))
T1 chain 1: not shown
T1 chain 2: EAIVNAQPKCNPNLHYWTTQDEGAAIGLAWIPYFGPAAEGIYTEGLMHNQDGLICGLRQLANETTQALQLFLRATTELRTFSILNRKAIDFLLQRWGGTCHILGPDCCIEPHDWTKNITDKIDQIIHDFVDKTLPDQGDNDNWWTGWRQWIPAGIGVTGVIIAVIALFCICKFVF

[2] = molecular target: EBOV GP ectodomain residues 1-636 (GPec) (Zaire ebolavirus, strain  …, UniProt Q05320)

| Binder | binding result [1] | binding result [2] |
| --- | --- | --- |
| 5.6.c3013 (antibody, V domains shown) VH: QVQLVQSGAEVKKPGASVKVSCKASGYTFTKYGISWMRQAPGQGLEWMGWISAYNGDTNYAQKLHGRLTMTTDTSTSTVYMELRSLRSDDTAIYYCARDLGELSSLKFYGMDVWGQGTTVTVSS VL: DIQLTQSPSFLSASVGDRVTITCRASQGISSFLAWYQQKPGKAPKILVYGASTLQSGVPSRFSGSGSGTEFTLTISSLQPEDFATYYCQQVNTFPFTFGPGTQVDFK | binds | binds |
| 5.6.c2866 (antibody, V domains shown) VH: QVQLVQSGAEVKKPGSSVKVSCKASGGTLSSYAISWVRQAPGQGLEWMGRIIPTLGMANYSQNFQGRVTITADKSTSTAYMELSSLRSEDTAVYYCARDPPPGYGDLFYYYSMDVWGQGTTVTVST VL: not shown | binds | binds |
| 5.6.c2801 (antibody, V domains shown) VH: EVQLVESGGGLVQPGGSLRLSCAASGFTFSTYWMSWVRQAPGKGLEWVANIKEDGSEKYYVDSVKGRFTISRDNGKNSLYLQMNSLRAEETAVYYCARDVPGDTVLGDAFHIWGQGTMVTVSS VL: not shown | binds | binds |
| 5.6.c2824 (antibody, V domains shown) VH: QVQLQESGPGLVKPSGTLSLTCAVSGGSISSNSWWSWVRQPPGKGLEWIGDMYHSGSTNYNPSLKSRVTISVDKSKNQFSLKLSSVTAADTAVYYCARARHDDSNTFLWFVYGMDVWGQGTTVTVSS VL: DIQMTQSPSSLSASVGDRVTITCRTSQSISSYLNWYQQKPGKAPKLLIYAASSLQSGVPSRFSGSGSGTDFTLTISTLQPEDFATYFCQQSYSTPRTFGQGTKLEIK | binds | binds |
| 5.6.c2798 (antibody, V domains shown) VH: QVQLQESGPGLVKPSETLSLTCTVSGGSISPDYWTWIRQPPGKGLEWIGFIYYAGGTDYNPSLKSRVTMSIDTSKKQFFLKLNSVTAADTAVYYCASGVPEDNSQILYYYYGMDVWGPGTTVTVSS VL: QSVLTQPPSVSAAPGQKVTISCSGSSPNIGNNYVSWYQQLPGTAPKLLIYDNNKRPSGIPDRFSGSKSGTSATLGITGLQTGDEADYYCGTWDRSLSAYVFGTGTKVTVL | binds | binds |
| 5.6.c2972 (antibody, V domains shown) VH: QVQLQESGPGLVKPSQTLSLTCAVSGGSIRSDDNYWSWIRQPPGKGLEWIGYIYHRGSTYYNPSLKNRVKISVDTSKNQFSLKLSSVTAADTAVYYCARDRIQVVPDGIVHYYYGMDVWGQGTTVTVSS VL: QSVLTQPPSVSAAPGQKVTISCSGSSSNIGNNYVSWYQQLPGTAPKLLIYDNNKRPSGIPDRFSGSKSGTSATLGITGLQTGDEADYYCGTWDNNLSAWVFGGGTKLTVL | binds | binds |
| 5.6.c2773 (antibody, V domains shown) VH: QVELQESGPGLVKPSGTLSLTCTVSGGSISSYHWSWIRQPPGKGLEWIAYMYYSGSTNYNPSLKSRVTTSVETSKNQLSLKVSSVTAADTAVYYCARIVGDEIFFYGLDVWGQGTTVTVSS VL: DIQMTQSPSSVSASVGDRVTITCRASQDISILLAWYQQKPGKAPKLLIYAASSLQSGVPSRFSGSGSGTDFTLTISSLQPEDFATYYCQQANSFPWTFAQGTKVEIK | binds | binds |
| 5.6.c3014 (antibody, V domains shown) VH: QVQLVESGGGVVQPGRSLRLSCAASGFSFNSYGMHWVRQAPGKGLEWVAIIWYDGSDKYYADSVKGRFTISRDNSKNTLSLQMNSLRVEDSAVYYCARDPGHPSDLYYYYGMDVWGQGTTVTVSS VL: DIQMTQSPSSVSASVGDRVTITCRASQDISYWLAWYQQKPGKAPKLLIYSASSLQSGVPSRFSGSGSGTDFTLTISSLQPEDFATYYCQQTHTFPITFGQGTRLEIK | binds | binds |
| 5.6.c2998 (antibody, V domains shown) VH: EVQLVESGGGVVQPGGSLRLSCAASGFTFDDYAMHWVRQAPGKGLEWVSIITGDGGSRNYADSVKGRFTISRDNNKNSLYLQMNSLRSEDTALYYCAKEGGPDSSTFYYYGMDVWGQGTTVTVSS VL: DIQMTQSPSSVSASVGDRVTITCRASQDVSSWLAWYRQKPGRAPELLIYAASSLQSGVPSRFSGSGSGTDFTLTISSLQPEDFASYYCLQANSIPWTFGQGTKVEIK | binds | binds |
| 5.6.c2828 (antibody, V domains shown) VH: EVQLVQSGAEVKKPGESLRISCKGSGYSFTKYWISWVRQMPGKGLEWMGRIDPSDSSTNYSPSFQGHVTISDDKSTSIVYLQWSSLKASDTAMYYCARHSWVQNSAYDPQMISYDHYYGMDVWGQGTTVTVSS VL: ENVLTQSPGTLSLSPGERATLSCRASQSVSSSYLAWYQQKPGQAPRLLIYGASSRATGIPDRFSGSGSGTDFTLTISRLEPGDFAVYYCHQYGSSPLTFGQGTRLEMK | binds | binds |
| 5.6.c3027 (antibody, V domains shown) VH: QVQLVESGGGVVQPGRSLRLSCAASGFSFNNYGMHWVRQAPGKGLEWVAHIYFDGNYKFYIDSVKGRFTISRDNAKYTLYLQMNSLRVEDTAVYYCARDVRDGDDIFSGYHYGMDVWGQGTTVTVSS VL: DIQMTQSPSSVSASVGDRVSITCRASQGFTNWLAWYQQKPGKAPKLVIYAASSLQSGVPSRFSGSGSGTNFTLTISSLQPEDFATYYCQQANSFPLTFGGGTKVDVK | binds | binds |
| 5.6.c2995 (antibody, V domains shown) VH: QVQLVESGGGVVQPGRSLRLSCAASGFSFSTYGMYWVRQAPGKGLEWVGVIWYDGSEKYHADFVKGRFTMSRDNSKNTLYLQMNSLRVEDTAVYYCARDLRPSTNSWYGYYYNAMDVWGQGTTVTVSS VL: QSVLTQPPSVSAAPGQRVTISCSGNSSNIGNNFVSWYQQLPGTAPKLLIYDNNSRPSGIPDRFSGSKSGTSATLGISGLQTGDEADYYCGSWDGSLSLWVFGGGTKLTVL | binds | binds |
| 5.6.c2913 (antibody, V domains shown) VH: DVQLVESGGGLVQPGGSLRLSCVASGLTFSRDWMTWVRQAPGKGLEWVANIKQDGSEKYYLDSVKGRFTISRDNSNNALYLQMSSLRGEDTAVYYCARLHGGGFSDSDLFYYDFAMDVWGQGTTVTVSA VL: EIVMTQSPATLSVSPGERATLSCRASQSVINNLAWYQQKPGQAPRLLIYGASTRATGIPARFSGSGSGTEFTLTISNLQSEDFAVYYCQQYNNWPPLTFGGGTQVEIK | binds | binds |
| 5.6.c3021 (antibody, V domains shown) VH: QLHLQESGPGLVKPSETLSLTCTVSGGSINHDYYWGWIRQPPGKGLEWIGTIYYSGNSYYNPSLKSRVTISVDTSKNQFSLKLSSVTAADTAVYYCARSEEDSVFGVLKGLAFDIWGQGTMVTVSS VL: QSVLTQPPSVSGAPGQRVTISCTGSSSNIGAGYDVHWYQQPPGRAPKLLIYGNSNRASGVPDRFSGSKSGTSASLAITGLQAEDEADYYCQSYDSSLSGSVFGGGTKLTVL | binds | binds |
| 5.6.c2961 (antibody, V domains shown) VH: QVQLQESGPGLVKPSQTLSLTCTVSGDSISSGDYYWNWIRHHPGKGLEWLGYIYYSGSSDYNPSLKSRVTISVDTSKNHFSLKLSSVTAADTAIYYCARGSVSVLFGELDVWGQGTTVTVSS VL: EIVLTQSPGTLSLSPGERATLSCRASQSVSNNFLAWYQQIRGQAPRLLIYGVSHRATGIPDRFSGSGSGTDFTLTISGLEPEDFALYYCQQYGRSPYTFGQGTRLEIK | binds | binds |
| 5.6.c2886 (antibody, V domains shown) VH: QVQLQESGPGLVKPSQTLSLTCTVSGGSISSGDYYWSWIRQHPGKGLEYIGYIYYSGSTFHNPSLKSRVTISIDTSKNQFSLKLSSVTAADTAVYYCARDSGSEIIMGAYGMDVWGQGTTVTVSS VL: DIQMTQSPSSVSASVGDRVTITCRASQGISWLAWYQQKPGKAPKLLIYAASSLQSGVPSRFSGSGSGTDFTLTISSLQPEDFATYYCQQANSFPWTFGQGTKVEIK | binds | binds |
| 5.6.c3023 (antibody, V domains shown) VH: QVQLVESGGGVVQPGRSLRLSCAASGFTFRTYGLHWVRQAPGKGLEWVAFISNDGSSKYNVDSVKGRFTISRDNPKNTLYLQMNSLRTEDTAVYYCAKDTISVAIYGHFDTWGQGTLVTVSS VL: DVVMTQSPLSLPVTLGQPASISCRSSQSLVKSDGNTYLNWFQQRPGQSPRRLIYKVSTRDTGVPDRFSGSGSGTDFTLKISRVEAEDVAVYYCMQATHWPITFGGGTTVEIK | binds | binds |
| 5.6.c2957 (antibody, V domains shown) VH: QVRMVQSGAEVKKPGSSVKVSCKTSGGTFSTYSISWVRQAPGHGLEWMGRLIPMLGTPNYAQKFQGRLTITADRSTSTAYMELSSLSSEDTAVYYCARDLGTVLTPGDSWGQGTLVTVSS VL: DIQMTQSPSSLSASVGDRVTITCRASQGISNYLAWFQQKPGEAPKSLIYAASSLQSGVPSKFSGSGSGTDFTLTISNLQPEDFATYYCQQYNSYPLTFGGGTKVEIK | binds | binds |
| 5.6.c2954 (antibody, V domains shown) VH: QAQLQESGPGLVKPSQTLSLTCTVSGGFSSSGGFFWSWIRQHPGKDLEWIGYIYSSGSPYYKPSLKSRVTISIDTSKNQFSLRLSSVTAADTAIYYCARGRGEMLTGYFDYWGQGKLVTVSS VL: SYVLTQPPSVSVAPGKTASITCGGNNIGSKSVHWYQQRPGQAPVLVIYYDTDRPSGIPERFSGSNSGNTATLTISRVEAGDEADYYCQVWDSSSDPLLFGGGTKLTVL | binds | binds |
| 5.6.c2931 (antibody, V domains shown) VH: QLQLQESGPGLVKPSQTLSLTCTVAGGSISRSSYYWGWIRQSPGKGLEWIGSIHYSGSTHYNSSLRSRVTISVDTSKNQFSLNLTSVTAADTAVYYCVRQSSVPYFDWSSPGQIDPWGQGTLVTVSS VL: QLVLTQSPSASASLGASVKFTCTLSSGHRSYAIAWHQQQPEKGPRYLMKINSDGSHNKGDGIPDRFSGSSSGDERYLTISSLQSEDEADYYCQTWGTGIQVFGGGTKLTVL | binds | binds |

Reference: paper PMC6908968 (Cell, 2019)
